Measurements: the nanobody polyreactivity screen of Harvey et al. (2022)

Assay: yeast display, Sf9 membrane polyspecificity reagent, FACS + sequencing; frameworks hold sequencing errors
Summary of the method: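 A nanobody's polyreactivity label depends on the gate it was sorted from. Yeast display cells were stained with 10% biotinylated, detergent-solubilized Sf9 membrane reagent for 1 hour at 4 °C, enriched on streptavidin microbeads and sorted by FACS. The low and high (top ~1%) gates were set on anti-HA fluorescence for expression and streptavidin fluorescence for reagent binding.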

| Sequence | polyreactivity (PSR sort gate) |
| --- | --- |
| QVHLVESGGGLVQAGGSLRLSCAASGRTFPGYAMGWYRQAPGKERELVATITFSDGSTYYADSVKGRFTISLDNAKNTVYLQMNSLKPEDTAVYYCNARRSYFLRYGVNYWGQGTQVTVSS | low polyreactivity |
| QVQLVESGGGLVQAGGSLRLSCAASGRTCRRYTIGWYRQAPGKERELVAAITSGGRTNYADSVKGRFTISRDNAKNTVYLQMNSLKPEDTAVYYCNAQNEIWRVTFSPYDRWGYDYWGQGTQVTVSS | low polyreactivity |
| QVQLVESGGGLVQAGGSLRLSCAASGLILVPNTMGWYRQAPGKERELVAAISYSGGGTYYADSVKGRFTISRDNAKNTVYLQMNSLKAEDTAVYYCAAYVKRESAPYGYWGHGTQVTVSS | low polyreactivity |
| QVQLVESGVGLVQAGGSLRLSCAASGITFSYYAMGWYRQAPGKERELVAAISGSGTSTYYADSVKGRFTISRDNAKNTVYLQMNSLKPEDTAVYYCAAGPPRKPGYYYWGQGTQVTVSS | high polyreactivity |
| QVQLVESGGGLVQAGGSLSLSCAASGFIFRGNGMGWYRQAPGKERELVAAIDSTDSTNYADSVKGRFTISRDNAKNTVYLQMNSLKPEDTAVYYCAAGVSWYGPYDYLWFYAFDYWGQGTQVTVSS | low polyreactivity |
| QVQILESGGGLVQAGGSLRVSCAASGSTFSYYAMGWYRQAPGKERELVAAIRSSGGSTYYADSVKGRFTISRDNAKNTVYLQMNSLKPEDTAVYYCAARRSVGYRRYDYWGQGTQVTVSS | high polyreactivity |
| QVQLVESGGGLVQAGGSLRLSCAASGRIFIYYAMGWDRQAPGKERELVAAISWGGGRTYYADSVKGRFTISRDNAKNTVYLQMNSLKPEDTAVYYCAAGVYTGQHEYDYWGQGTQVTVSS | low polyreactivity |
| QVQLVESGGGLVQAGGSLRLSCAASGFTFGPYTMGWYRQAPGKERELVAAISRSGTGTYYADSVKGRFTISRDNAKNTVYLQMNSLKPEDTAVYYCAADNGDNHGYYWGQGTQVTLSS | high polyreactivity |
| QVQLVESGGGLVQAGGSLRLSCAASGSIFYVNDMGWYRQAPGKERELVAAISSTGSTKYADSVKGRFTISRDNAKNTVYLQMNSLKPEDTAVYYCAKEPGHRFEFDYWGQGTQVTVSS | low polyreactivity |
| QVQLVESGGGLVQAGGSLRLSCAASGRIFRSYAMGWYRQAPGKERELVADISISGGRTYYADSVKGRFTISRDNAKNTVYLQMNSLKPEDTAVYYCAARTYDRNRQLRRQWYDYWGQGTQVTVSS | high polyreactivity |
| QDQLVESGGGLVQAGGSLRISCAASGFTLKKYVMGWYRQAPGKERELVAAISSSGGSTYYADSVKGRFTISRDNAKNTVYLQMNSLKPEDTAVYYCAAVQSYAGFEYGYWGQGTQVTVSS | high polyreactivity |
| QVQLVESGGGLVQAGGSLRLSCAASGRTFAGNAMGWYRQAPGKEREFVASITASGVNTYYADSVKGRFTISRDNAKNTVYLQMNSLKPEDTAVYYCNKRNRWTPFYTYDYWGQGTQVTVSS | low polyreactivity |
| QGQLVESGGGLVQAGGSLRLKCAASVFTFQFYDMGWYRQAPGKEMEFVATITWRAGSTYYADSVKGRFTISRDNAKNTVYLQMNSLKPEDTAVYYCIADYYRHSLDYDYVGYDYWGQGTQVTVSS | low polyreactivity |
| QVQLVESGGGLVQAGGSLRLSCAASGGTFYPYAMGWYRQAPGKERELVAAISRGGGSTSYADSVKGRFTISRDNAQNTVYLQMNSLKPEDTAVYYSNAYTYYHANHEQGFGYWGQGTQVTVSS | low polyreactivity |
| QFQLVESGGGLVQAGGSLRLSCAASGRIFPLYVMGWYRQAPGKERELVAAMSRSGSRTYYADSVKGRFTISRDNAKNTVYFQMNSLKPEDTAVYYCAAVPDGTTRYDGDYWGQGTQVTVSS | high polyreactivity |
| QVQLVESGGGLVQAGGSLRLSCPASGGTFSFYTMGGYRQSPGKEREWVAAIDSTGRTNYADSVKGRFTISRDYPKNTVYLQMNRLIPEDTAVYYCAAVSPTYPYTFYRYNYWGQGTQVTVSS | low polyreactivity |
| QVQLVESGGGLVQAGGSLRLSCAASGIIFQYYVMGWYRQAPGKERELVAAIDKSGGSTYYADSVKGRFTISRDNAKNTVYLQMNSLKPEDTAVYYCNRDRGWTRFYVYSTGAWLYDYWGQGTQVTVSS | low polyreactivity |
| HVQLVESGGGLVQAGGSLRLSCAASGFIGIYAMGWYRQAPGKERELVAAITTSGGRTYYADSVKGRFTISRDNAKNTVYLQMNSLKPEDTAVYYCAAPWRLFSLYDYWGQGTQVTVSS | low polyreactivity |
| QVQLVESGGGLVQAGGSLRLSCAASGRIFKGYAMGWYRQAPGKERELVAAITWRGGTTYYADSVKGRFTISRDNAKNTVYLQMTSLKPEDTAVYYCARARPTGYNYWGQGTQVTVSS | high polyreactivity |
| QVQLVESGGGLVQAGGSLRLSCAASGSTFAGNGMGWSRQAPGKERELVAGIDVTGGSTYYADSVKGRFTISRDNAKNTVYLQMNSLKPEDTAVYYCNARYVYHSSFAGFDYWGQGTQVTVSS | low polyreactivity |
| QVQLVESGGGLVQAGGSLRLSCAASGRTFTRYTKGWYRQAPRKERDLVAASTRGGSTYADSVKGRFTNSRDNAKNTVYLEMNSLKPEDTAVYYCAAYWGFFPWRAYPYDYWGQGTQVTVSS | high polyreactivity |
| QVQLVESGGGLVQAGGSLRLSCAASGSTFVYYDMGGYRPAPGKERELVADISDSGGSTNYADSVKGRFTISRDNAKNTVYLHMNSLKPEDTAVYYCAADSADPTEYDYWGQGTQVTVSS | low polyreactivity |

| Sequence | polyreactivity (PSR sort gate) |
| --- | --- |
| QVQLVESGAGLVQAGGSLRLSCAASGSIFYPYAMGWYRQAPGKERELVAAITYSGGSTYADSVKGRFTISRDNAKNTVYLQMNSLKPEDTAVYYCAARYIIHVGSWYDYWGQGTQVTVSS | high polyreactivity |
| QVQLVESGGGLVQAGVSLRLSCAASGRTFYRYVMGWYRQAPGKERELVAAITPGGSTYADSVKGRFTISRDNAKNTVYLQMNSLKPEDTAVYFCNKRKASSSGYNYWGQGTQVTVSS | low polyreactivity |
| QVQLVESGGGLVQAGGSLRLSCAASGITFYRYAMGWYRQAPGKERELVAAISWSGGSTYYADSVKGRFTFSRDNAKNTVYLQMNSLKPEDTAVYYCNKYIRYPFKRYGYWGQGTQVTLSS | high polyreactivity |
| QVQLVESGGGLVQAGGSLRLSCAASGSIFYPYAMGWYRQAPGKEREFVAAITRSGGSTSYADSVKGRFTISRDNAKNTVYLHMNSLKPEDTAVYYCAAGYWYPDYDGFDYWGQGTQVTVSS | low polyreactivity |
| QVHLVESGGGLVQAGGSLRLSCAASGSTFVYNTMGWYRQAHGKERELVASISSDGNTDYADSVKGRFTISRDNAKNTVYVQMNSLKPEDTAVYYCAARYYYDWRFVGYDYWGQGTQVTVSS | low polyreactivity |
| QVQLVESGGGLVQAGGSLRLSCAASGSTFLVYAMGWYRQAPGKERELVAAIRSGGRTYYADSVKGRFTISRDNAKNTVYLQMNSLKPEDTAVYYCAADVLLRYGYRGYDYWGQGTQVTVSS | low polyreactivity |
| QVQLVESGGGLVQAGGSLRLSCAASGSTFVPNDMGWYRQAPGKEMELVAGISSGGGTYADSVKGRFTISRDNAKNTVYLQLNSLKPVDTAVYYCNALHAYYVLTPYDYWGQGTQVTVSS | low polyreactivity |
| QVQLVESGGGLVQAGGSLRLSCDASGSTIDWYAMGWYRQAPGKERELVAGITISAGRTYYADSVKGRFTISRDNAKNTVYLQMNSLKPEDTAVYYCAADVYYYLDMDHWGQGTQVTVSS | low polyreactivity |
| QVQLVESGGGLVQAGGSLRLSCAASGSTFLRNAMGWYRQAPGKERELVAAISWSAGSTYYADSVKGRFTISRDNAKNTVYLQMNSLKPEDTAVYYCAVDKYVFVSYSFYFEYDYWGQGTQVTVSS | low polyreactivity |
| QVQLVESGGGLVQAGGSLRLSCAASGRIFYSNAMGWYRQAPGKERELVAAISGSTDSTYYADSVKGRFTISRDNAKNTDYLQMNSVKPEDTAVYYCAAADYWFYYGYYLTMDFWGQGTQVTVSS | low polyreactivity |
| QVQLVESGGGLVQAGGSLRLTCAASGRIFDTYAMVWYRQAPGKEMELVAAISRSGGRTYYADSVKGRFTISRDNANNTVYLQMNSLKPEDTAVYYCAARAYPYYWTGQKQSRFGYWGQGTQVTVSS | high polyreactivity |
| QVQLVESGGGLVQAGGSLRLSCAASGITFRWNAMGWYRQAPGKERELVAAITTRGGGTYYADSVKGRFTISRDNAKNTVYLQMNSLKPEDTAVYYCGAKKSRYPYNYWGQGTQVTVSS | high polyreactivity |
| QVQLVESGGGLVQAGGSLRLSCAASGSIFRQNVMGWYRQAPGKERELVAAISRNGGSTYYADSVKGRFTISRDNAKNTVYFQMNSLKPEDTGVYYCAARGFRRYDYWGQGTQVTVSS | high polyreactivity |
| QVQLVESGGGLVQAGGSLRLSCASSGGTFPYYAMGWYRQAPGKERELVAAINYSCGSTYYADSVKGRFTISRDNAQYTVYLQMTSLKPEDTAVFYCAARYQFYRYDSTYSYWGQGTQVTVSS | high polyreactivity |
| QVQLVESGGGLVQAGGSLRLSCAASGSIFPYYAMGWYRQAPGKERELVATITYRGGSTNYADSVKGRFTISRDNAKNTVYLQMNSLNPEDTAVYYCAAYGYVLASPYPYSFVKLGYWGQGTQVTVSS | low polyreactivity |
| QVQLVESGGGLVQAGGSLRLSCAASGSIFAKNAMGWYRQAPGKERELVAGIDFSGGSTYYADSVKGRFTISRDNAKNTVYLQMNSLKPEDTAVDYCAADWAYKYELDYWGQGTQVTVSS | low polyreactivity |
| QVQLVESGGGLVHAGGSLRLSCAASGSTFGDNAMGWYRQAPGKERELVAAITSGTSTNYADSVKGRFTISRDNAKNTVYLQMNSLKPEDTAVYYCAAQYYGVAKQGLDEEDYWGQGTQVTVSS | low polyreactivity |
| QVQLVESGGGLVQAGGSLRFSCAASGSIFDSYAMGWYRHAPGKERELVAAITWSGGITFYADSVKGRYTISRDNAKNTVYLQMNSLKPEDTAVYYCATARSYVGVGGTFVGLYDYWGQGTQVTVSS | low polyreactivity |
| QVQLVESGGGLVQAGGSLRLSCAASGRTFQYNAMGWYRQAPGKERELVAAISSSGGSTYYADSVKGRFTISRDNAKNTVYLQMNSLKPEDTAVYYCNAYSQSWNFYGDGDYWGQGTQVTVSS | low polyreactivity |
| QVQLVESGGGLVQAGGSLRLSCADSGSTIYPYAMGWYRQAPGKERELVAAINRSGGRTYYADSVKGRFTISRDNAKNTVYLQMISLKPEDTAVYYCAARVRSRNSYDYWGQGTQVTVSS | low polyreactivity |
| QVQLVESGGGLVQAGGSLRLSCAASGRTFFVNAMGWYRQAPGKERELVATITFSGDSTYYADSVKGRFTISRDNAKNTVYLQMNSLKPEDTAVYYCAVRWPSARIPVKLDYWGQGTQVTVSS | high polyreactivity |
